Results published in patent US20230330251A1, “METHODS FOR TREATING CANCERS WITH ANTIBODY DRUG CONJUGATES (ADC) THAT BIND TO 191P4D12 PROTEINS” (AGENSYS, INC., priority 2020, published 2023).

System: subjects with previously treated locally advanced or metastatic urothelial cancer
Test: EV-301: safety, adverse events (safety analysis set, NCI-CTCAE v4.03, MedDRA)
[1] = Any Grade, N = 296 EV, 291 chemotherapy
[2] = Baseline PN, n = 55 EV, 58 chemotherapy
[3] = Grade 1, N = 296 EV, 291 chemotherapy
[4] = Grade 2, N = 296 EV, 291 chemotherapy
[5] = Grade 3, N = 296 EV, 291 chemotherapy
[6] = Grade 4, N = 296 EV, 291 chemotherapy
[7] = Grade Any, N = 296 EV, 291 chemotherapy

Text: The Safety Analysis Set (SAF) will be used for the safety analysis. All subjects who are randomized and received study drug will be included in the SAF. The frequency of AEs and the serious AEs will be summarized by MedDRA system organ class and preferred term. In addition, summary statistics will be provided for the following safety parameters: • Laboratory values • Vital sign measurements • ECOG PS
An AE is any untoward medical occurrence in a subject, temporally associated with the use of a medicinal product, whether or not considered related to the medicinal product. An AE can therefore be any unfavorable and unintended sign (including an abnormal laboratory finding), symptom, or disease (new or exacerbated) temporally associated with the use of a medicinal product.
AEs, including abnormal clinical laboratory values, will be graded using the NCI-CTCAE guidelines (Version 4.03).
The safety analysis set (SAF), which consists of all subjects who received any amount of study drug, will be used for safety analyses.
SAF was used to perform all safety analysis. All treated subjects were analyzed according to the treatment they received.
The number and percentage of AEs by severity were also summarized. All AEs were listed.
A study drug-related TEAE is defined as any TEAE with a causal relationship of YES by the investigator. AEs of interest as classified by customized MedDRA queries and/or standard MedDRA queries were also summarized.

In the case of enfortumab vedotin, the “Treatment-related adverse events of grade 3 or higher” value (% of patients) is reported as 51.4%, the “Treatment-related adverse events resulting in dose reduction” value (% of patients) is reported as 32.4% and the “Treatment-related adverse events resulting in interruption of treatment” value (% of patients) is reported as 51.0%. The “Treatment-related adverse events resulting in withdrawal of treatment” value (% of patients) was 13.5%, the “grade 3 or higher treatment-related decreased neutrophil count” value (% of patients) was 6.1% and the “grade 3 or higher treatment-related fatigue” value (% of patients) was 6.4%. The “grade 3 or higher treatment-related maculopapular rash” value (% of patients) was 7.4%, the “Grade ≥3 TRAE: Decreased neutrophil count, %” value (All, N = 296 EV, 291 SC) was 6.1% and the “Grade ≥3 TRAE: Decreased white blood cell count, %” value (All, N = 296 EV, 291 SC) was 1.4%. The “Grade ≥3 TRAE: Fatigue, %” value (All, N = 296 EV, 291 SC) was 6.4%, the “Grade ≥3 TRAE: Febrile neutropenia, %” value (All, N = 296 EV, 291 SC) was 0.7% and the “Grade ≥3 TRAE: Maculopapular rash, %” value (All, N = 296 EV, 291 SC) was 7.4%. For the same substance, the “Grade ≥3 TRAE: Neutropenia, %” value (All, N = 296 EV, 291 SC) was 4.7%, the “TRAE: Alopecia, Number of patients” value [1] was 134 and the “TRAE: Alopecia, percent” value [1] was “(45.3) percent”. For the same substance, the “TRAE: Anemia, Number of patients” value [1] was 34, the “TRAE: Anemia, percent” value [1] was “(11.5) percent” and the “TRAE: Any adverse event, Number of patients” value [1] was 278. For the same substance, the “TRAE: Any adverse event, percent” value [1] was “(93.9) percent”, the “TRAE: Decreased appetite, Number of patients” value [1] was 91 and the “TRAE: Decreased appetite, percent” value [1] was “(30.7) percent”. The “TRAE: Decreased neutrophil count, Number of patients” value [1] was 30, the “TRAE: Decreased neutrophil count, percent” value [1] was “(10.1) percent” and the “TRAE: Decreased white-cell count, Number of patients” value [1] was 16. The “TRAE: Decreased white-cell count, percent” value [1] was “(5.4) percent”, the “TRAE: Diarrhea, Number of patients” value [1] was 72 and the “TRAE: Diarrhea, percent” value [1] was “(24.3) percent”. The “TRAE: Dysgeusia, Number of patients” value [1] was 72, the “TRAE: Dysgeusia, percent” value [1] was “(24.3) percent” and the “TRAE: Fatigue, Number of patients” value [1] was 92. For the same substance, the “TRAE: Fatigue, percent” value [1] was “(31.1) percent”, the “TRAE: Febrile neutropenia, Number of patients” value [1] was 2 and the “TRAE: Febrile neutropenia, percent” value [1] was “(0.7) percent”. The “TRAE: Maculopapular rash, Number of patients” value [1] was 48, the “TRAE: Maculopapular rash, percent” value [1] was “(16.2) percent” and the “TRAE: Nausea, Number of patients” value [1] was 67. For the same substance, the “TRAE: Nausea, percent” value [1] was “(22.6) percent”, the “TRAE: Neutropenia, Number of patients” value [1] was 20 and the “TRAE: Neutropenia, percent” value [1] was “(6.8) percent”. For the same substance, the “TRAE: Peripheral sensory neuropathy, Number of patients” value [1] was 100, the “TRAE: Peripheral sensory neuropathy, percent” value [1] was “(33.8) percent” and the “TRAE: Pruritus, percent” value [1] was “(32.1) percent”. The “Treatment-emergent Hyperglycemia, %” value (Baseline BMI <30 kg/m^2, n = 255 EV, 244 chemotherapy) was 9.0%, the “Treatment-emergent Hyperglycemia, %” value (Baseline BMI ≥30 kg/m^2, n = 41 EV, 46 chemotherapy) was 29.3% and the “Treatment-emergent Hyperglycemia, %” value [2] was 38.2%. For the same substance, the “Treatment-emergent Peripheral motor neuropathy, %” value [2] was 20.0%, the “Treatment-emergent Peripheral neuropathy, %” value [2] was 49.1% and the “Treatment-emergent Peripheral sensory neuropathy, %” value [2] was 40.0%. For the same substance, the “TRAE of special interest: Blurred vision, %” value (“TRAE … Blurred vision, %” for short) [3] was 3.4%, the “TRAE of special interest: Corneal disorders, %” value [3] was 0.7% and the “TRAE of special interest: Dry eye, %” value [3] was 11.5%. The “TRAE of special interest: Extravasation site reactions, %” value (shortened to “TRAE … Extravasation site reactions, %”) [3] was 0.3%, the “TRAE of special interest: Hyperglycemia, %” value (from here on “TRAE … Hyperglycemia, %”) [3] was 1.0% and the “TRAE of special interest: Infusion-related reactions, %” value (from here on “TRAE … Infusion-related reactions, %”) [3] was 3.7%. The “TRAE of special interest: Infusion-related reactions, Local events, %” value [3] was 0.3%, the “TRAE of special interest: Infusion-related reactions, Systemic events, %” value (shortened to “TRAE of special interest … Systemic events, %”) [3] was 3.4% and the “TRAE of special interest: Ocular disorders, %” value (“TRAE … Ocular disorders, %” for short) [3] was 13.5%. For the same substance, the “TRAE of special interest: Peripheral neuropathy, %” value (“TRAE … Peripheral neuropathy, %” for short) [3] was 14.9%, the “TRAE of special interest: Peripheral neuropathy, Motor events, %” value (from here on “TRAE of special interest … Motor events, %”) [3] was 1.7% and the “TRAE of special interest: Peripheral neuropathy, Sensory events, %” value (shortened to “TRAE of special interest … Sensory events, %”) [3] was 14.5%. The “TRAE of special interest: Rash, %” value [3] was 13.9%, the “TRAE of special interest: Severe cutaneous adverse reaction, %” value (from here on “TRAE … Severe cutaneous adverse reaction, %”) [3] was 6.8% and the “TRAE of special interest: Skin reactions, %” value (from here on “TRAE … Skin reactions, %”) [3] was 13.9%. The “TRAE … Blurred vision, %” value [4] was 0.7%, the “TRAE of special interest: Dry eye, %” value [4] was 3.7% and the “TRAE … Extravasation site reactions, %” value [4] was 0.7%. The “TRAE … Hyperglycemia, %” value [4] was 1.4%, the “TRAE of special interest: Infusion site reactions, %” value [4] was 0.7% and the “TRAE … Infusion-related reactions, %” value [4] was 3.7%. The “TRAE of special interest: Infusion-related reactions, Local events, %” value [4] was 0.7%, the “TRAE of special interest … Systemic events, %” value [4] was 3.0% and the “TRAE … Ocular disorders, %” value [4] was 4.4%. The “TRAE … Peripheral neuropathy, %” value [4] was 26.4%, the “TRAE of special interest … Motor events, %” value [4] was 4.1% and the “TRAE of special interest … Sensory events, %” value [4] was 25.7%. For the same substance, the “TRAE of special interest: Rash, %” value [4] was 15.5%, the “TRAE … Severe cutaneous adverse reaction, %” value [4] was 8.4% and the “TRAE … Skin reactions, %” value [4] was 18.6%. For the same substance, the “TRAE of special interest: Dry eye, %” value [5] was 0.7%, the “TRAE … Hyperglycemia, %” value [5] was 3.7% and the “TRAE … Infusion-related reactions, %” value [5] was 1.4%. The “TRAE of special interest … Systemic events, %” value [5] was 1.4%, the “TRAE … Ocular disorders, %” value [5] was 0.7% and the “TRAE … Peripheral neuropathy, %” value [5] was 5.1%. The “TRAE of special interest … Motor events, %” value [5] was 1.7%, the “TRAE of special interest … Sensory events, %” value [5] was 3.7% and the “TRAE of special interest: Rash, %” value [5] was 14.2%. The “TRAE … Severe cutaneous adverse reaction, %” value [5] was 4.7%, the “TRAE … Skin reactions, %” value [5] was 14.2% and the “TRAE of special interest: Rash, %” value [6] was 0.3%. For the same substance, the “TRAE … Severe cutaneous adverse reaction, %” value [6] was 0.3%, the “TRAE … Skin reactions, %” value [6] was 0.3% and the “TRAE … Hyperglycemia, %” value (Grade 5, N = 296 EV, 291 chemotherapy) was 0.3%. The “TRAE … Blurred vision, %” value [7] was 4.1%, the “TRAE of special interest: Corneal disorders, %” value [7] was 0.7% and the “TRAE of special interest: Dry eye, %” value [7] was 15.9%. For the same substance, the “TRAE … Extravasation site reactions, %” value [7] was 1.0%, the “TRAE … Hyperglycemia, %” value [7] was 6.4% and the “TRAE of special interest: Infusion site reactions, %” value [7] was 0.7%.
